From IntAct's records for PubMed 23328395

B1: Antiviral innate immune response receptor RIG-I (Homo sapiens), O95786-1 (parent)
chain: MTTEQRRSLQAFQDYIRKTLDPTYILSYMAPWFREEEVQYIQAEKNNKGPMEAATLFLKFLLELQEEGWFRGFLDALDHAGYSGLYEAIESWDFKKIEKLEEYRLLLKRLQPEFKTRIIPTDIISDLSECLINQECEEILQICSTKGMMAGAEKLVECLLRSDKENWPKTLKLALEKERNKFSELWIVEKGIKDVETEDLEDKMETSDIQIFYQEDPECQNLSENSCPPSEVSDTNLYSPFKPRNYQLELALPAMKGKNTIICAPTGCGKTFVSLLICEHHLKKFPQGQKGKVVFFANQIPVYEQQKSVFSKYFERHGYRVTGISGATAENVPVEQIVENNDIIILTPQILVNNLKKGTIPSLSIFTLMIFDECHNTSKQHPYNMIMFNYLDQKLGGSSGPLPQVIGLTASVGVGDAKNTDEALDYICKLCASLDASVIATVKHNLEELEQVVYKPQKFFRKVESRISDKFKYIIAQLMRDTESLAKRICKDLENLSQIQNREFGTQKYEQWIVTVQKACMVFQMPDKDEESRICKALFLYTSHLRKYNDALIISEHARMKDALDYLKDFFSNVRAAGFDEIEQDLTQRFEEKLQELESVSRDPSNENPKLEDLCFILQEEYHLNPETITILFVKTRALVDALKNWIEGNPKLSFLKPGILTGRGKTNQNTGMTLPAQKCILDAFKASGDHNILIATSVADEGIDIAQCNLVILYEYVGNVIKMIQTRGRGRARGSKCFLLTSNAGVIEKEQINMYKEKMMNDSILRLQTWDEAVFREKILHIQTHEKFIRDSQEKPKPVPDKENKKLLCRKCKALACYTADVRVIEECHYTVLGDAFKECFVSRPHPKPKQFSSFEKRAKIFCARQNCSHDWGIHVKYKTFEIPVIKIESFVVEDIATGVQTLYSKWKDFHFEKIPFDPAEMSK
partner: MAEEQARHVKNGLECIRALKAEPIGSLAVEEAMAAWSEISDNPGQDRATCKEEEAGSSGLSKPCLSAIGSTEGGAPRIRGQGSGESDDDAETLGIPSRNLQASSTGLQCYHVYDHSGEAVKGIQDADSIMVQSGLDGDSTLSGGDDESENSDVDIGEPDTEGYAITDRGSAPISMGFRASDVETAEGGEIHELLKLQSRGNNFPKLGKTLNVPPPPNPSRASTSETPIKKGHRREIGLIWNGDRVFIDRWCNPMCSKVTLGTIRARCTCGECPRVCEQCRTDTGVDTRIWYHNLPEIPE
B2: Interferon-induced helicase C domain-containing protein 1 (Mus musculus), Q8R5F7-1 (parent)
chain: MSIVCSAEDSFRNLILFFRPRLKMYIQVEPVLDHLIFLSAETKEQILKKINTCGNTSAAELLLSTLEQGQWPLGWTQMFVEALEHSGNPLAARYVKPTLTDLPSPSSETAHDECLHLLTLLQPTLVDKLLINDVLDTCFEKGLLTVEDRNRISAAGNSGNESGVRELLRRIVQKENWFSTFLDVLRQTGNDALFQELTGGGCPEDNTDLANSSHRDGPAANECLLPAVDESSLETEAWNVDDILPEASCTDSSVTTESDTSLAEGSVSCFDESLGHNSNMGRDSGTMGSDSDESVIQTKRVSPEPELQLRPYQMEVAQPALDGKNIIICLPTGSGKTRVAVYITKDHLDKKKQASESGKVIVLVNKVMLAEQLFRKEFNPYLKKWYRIIGLSGDTQLKISFPEVVKSYDVIISTAQILENSLLNLESGDDDGVQLSDFSLIIIDECHHTNKEAVYNNIMRRYLKQKLRNNDLKKQNKPAIPLPQILGLTASPGVGAAKKQSEAEKHILNICANLDAFTIKTVKENLGQLKHQIKEPCKKFVIADDTRENPFKEKLLEIMASIQTYCQKSPMSDFGTQHYEQWAIQMEKKAAKDGNRKDRVCAEHLRKYNEALQINDTIRMIDAYSHLETFYTDEKEKKFAVLNDSDKSDDEASSCNDQLKGDVKKSLKLDETDEFLMNLFFDNKKMLKKLAENPKYENEKLIKLRNTILEQFTRSEESSRGIIFTKTRQSTYALSQWIMENAKFAEVGVKAHHLIGAGHSSEVKPMTQTEQKEVISKFRTGEINLLIATTVAEEGLDIKECNIVIRYGLVTNEIAMVQARGRARADESTYVLVTSSGSGVTEREIVNDFREKMMYKAINRVQNMKPEEYAHKILELQVQSILEKKMKVKRSIAKQYNDNPSLITLLCKNCSMLVCSGENIHVIEKMHHVNMTPEFKGLYIVRENKALQKKFADYQTNGEIICKCGQAWGTMMVHKGLDLPCLKIRNFVVNFKNNSPKKQYKKWVELPIRFPDLDYSEYCLYSDED
B3: Antiviral innate immune response receptor RIG-I (Mus musculus), Q6Q899-1 (parent)
chain: MTAEQRQNLQAFRDYIKKILDPTYILSYMSSWLEDEEVQYIQAEKNNKGPMEAASLFLQYLLKLQSEGWFQAFLDALYHAGYCGLCEAIESWDFQKIEKLEEHRLLLRRLEPEFKATVDPNDILSELSECLINQECEEIRQIRDTKGRMAGAEKMAECLIRSDKENWPKVLQLALEKDNSKFSELWIVDKGFKRAESKADEDDGAEASSIQIFIQEEPECQNLSQNPGPPSEASSNNLHSPLKPRNYQLELALPAKKGKNTIICAPTGCGKTFVSLLICEHHLKKFPCGQKGKVVFFANQIPVYEQQATVFSRYFERLGYNIASISGATSDSVSVQHIIEDNDIIILTPQILVNNLNNGAIPSLSVFTLMIFDECHNTSKNHPYNQIMFRYLDHKLGESRDPLPQVVGLTASVGVGDAKTAEEAMQHICKLCAALDASVIATVRDNVAELEQVVYKPQKISRKVASRTSNTFKCIISQLMKETEKLAKDVSEELGKLFQIQNREFGTQKYEQWIVGVHKACSVFQMADKEEESRVCKALFLYTSHLRKYNDALIISEDAQMTDALNYLKAFFHDVREAAFDETERELTRRFEEKLEELEKVSRDPSNENPKLRDLYLVLQEEYHLKPETKTILFVKTRALVDALKKWIEENPALSFLKPGILTGRGRTNRATGMTLPAQKCVLEAFRASGDNNILIATSVADEGIDIAECNLVILYEYVGNVIKMIQTRGRGRARDSKCFLLTSSADVIEKEKANMIKEKIMNESILRLQTWDEMKFGKTVHRIQVNEKLLRDSQHKPQPVPDKENKKLLCGKCKNFACYTADIRVVETSHYTVLGDAFKERFVCKPHPKPKIYDNFEKKAKIFCAKQNCSHDWGIFVRYKTFEIPVIKIESFVVEDIVSGVQNRHSKWKDFHFERIQFDPAEMSV
B4: Interferon-induced helicase C domain-containing protein 1 (Homo sapiens), Q9BYX4 (parent)
chain: MSNGYSTDENFRYLISCFRARVKMYIQVEPVLDYLTFLPAEVKEQIQRTVATSGNMQAVELLLSTLEKGVWHLGWTREFVEALRRTGSPLAARYMNPELTDLPSPSFENAHDEYLQLLNLLQPTLVDKLLVRDVLDKCMEEELLTIEDRNRIAAAENNGNESGVRELLKRIVQKENWFSAFLNVLRQTGNNELVQELTGSDCSESNAEIENLSQVDGPQVEEQLLSTTVQPNLEKEVWGMENNSSESSFADSSVVSESDTSLAEGSVSCLDESLGHNSNMGSDSGTMGSDSDEENVAARASPEPELQLRPYQMEVAQPALEGKNIIICLPTGSGKTRVAVYIAKDHLDKKKKASEPGKVIVLVNKVLLVEQLFRKEFQPFLKKWYRVIGLSGDTQLKISFPEVVKSCDIIISTAQILENSLLNLENGEDAGVQLSDFSLIIIDECHHTNKEAVYNNIMRHYLMQKLKNNRLKKENKPVIPLPQILGLTASPGVGGATKQAKAEEHILKLCANLDAFTIKTVKENLDQLKNQIQEPCKKFAIADATREDPFKEKLLEIMTRIQTYCQMSPMSDFGTQPYEQWAIQMEKKAAKEGNRKERVCAEHLRKYNEALQINDTIRMIDAYTHLETFYNEEKDKKFAVIEDDSDEGGDDEYCDGDEDEDDLKKPLKLDETDRFLMTLFFENNKMLKRLAENPEYENEKLTKLRNTIMEQYTRTEESARGIIFTKTRQSAYALSQWITENEKFAEVGVKAHHLIGAGHSSEFKPMTQNEQKEVISKFRTGKINLLIATTVAEEGLDIKECNIVIRYGLVTNEIAMVQARGRARADESTYVLVAHSGSGVIEHETVNDFREKMMYKAIHCVQNMKPEEYAHKILELQMQSIMEKKMKTKRNIAKHYKNNPSLITFLCKNCSVLACSGEDIHVIEKMHHVNMTPEFKELYIVRENKALQKKCADYQINGEIICKCGQAWGTMMVHKGLDLPCLKIRNFVVVFKNNSTKKQYKKWVELPITFPNLDYSECCLFSDED
partner: B1 partner
B5: Non-structural protein V (Simian virus 5 (strain W3)), P11207 (parent)
chain: MDPTDLSFSPDEINKLIETGLNTVEYFTSQQVTGTSSLGKNTIPPGVTGLLTNAAEAKIQESTNHQKGSVGGGAKPKKPRPKIAIVPADDKTVPGKPIPNPLLGLDSTPSTQTVLDLSGKTLPSGSYKGVKLAKFGKENLMTRFIEEPRENPIATSSPIDFKRGRDTGGFHRREYSIGWVGDEVKVTEWCNPSCSPITAAARRFECTCHQCPVTCSECERDT
partner: B2 chain
B6: Non-structural protein V (measles virus (strai), P0C774 (parent)
chain: B1 partner
partner: B4 chain

Variants of: B1
Conditions: with v_measc P/V

Variant | effect of a mutation on the interaction
L714R | increasing interaction strength
L714R;E716G | increasing interaction strength

Variants of: B2
Conditions: with v_piv5 P/V

Variant | effect of a mutation on the interaction
R806L | disrupting interaction strength

Variants of: B3
Conditions: with v_piv5 P/V

Variant | effect of a mutation on the interaction
L715R;E717G | increasing interaction strength

Variants of: B4
Conditions: with v_measc P/V

Variant | effect of a mutation on the interaction
R806L | decreasing interaction strength

Variants of: B5
Conditions: with Ifih1, Q8R5F7-1

Variant | effect of a mutation on the interaction
E174A | decreasing interaction strength

Variants of: B6
Conditions: with ifih1_human IFIH1, Q9BYX4

Variant | effect of a mutation on the interaction
E235A | decreasing interaction strength
